± gives the uncertainty stated by the source.
Assay: protein stability index of a GFP-peptide fusion (yeast GPS) (PSI 1-4); higher = more stable; sorted into four equal gates, so the index is relative within each strain
Procedure, shortened: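 Each library plasmid carries Cherry plus GFP with a tiled 17-residue yeast protein peptide fused downstream, and the pooled library was carried in yeast. Mid-log cultures in leucine-free medium were sorted into four equal gates by GFP/Cherry ratio. Reads from Illumina sequencing of PCR-amplified plasmids from each gate were assigned to strains by barcodes. Per peptide, the protein stability index was computed as the summed products of gate read frequency and gate number.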

Sequence	protein stability index (doa10∆)	protein stability index (pdr5∆)	protein stability index (san1∆)	protein stability index (ubr1∆)
DASPAPSNESCSPWSLQ [SRB5]	2.72 ± 0.071	2.43 ± 0.052	2.86 ± 0.046	2.33 ± 0.033
AYFMVGAMGLLSSAGAK [RIP1]	1.99 ± 0.11	2.51 ± 0.11	2.06 ± 0.18	2.34 ± 0.091
INNNINIPQQQQMQPPN [GAL11]	2.58 ± 0.07	2.87 ± 0.073	2.83 ± 0.049	2.84 ± 0.056
LTHVDLIEKFLRYNPLE [RPB10]	2.91 ± 0.14	3.29 ± 0.12	3.23 ± 0.071	3.12 ± 0.04
EGYGLRDVMCTDGVIGS [RPO31]	2.35 ± 0.11	3.29 ± 0.14	2.58 ± 0.14	2.84 ± 0.06
SESKQLGNTSSVANTPS [SWI3]	3.08 ± 0.071	2.56 ± 0.057	2.98 ± 0.073	2.94 ± 0.046
NNDLESVSMLLQYYILE [RRI2]	2.94 ± 0.047	3.16 ± 0.049	3.16 ± 0.034	3.122 ± 0.031
YYAKKRAFTKKVSSASA [RPL16B]	1.82 ± 0.075	1.71 ± 0.048	1.95 ± 0.068	1.41 ± 0.055
LKPVDKLKPMNIERKQT [SIN4]	2.82 ± 0.11	3.05 ± 0.11	2.83 ± 0.088	3.04 ± 0.11
RVARRNAARKAEASGEA [RPS9A]	3.32 ± 0.13	3.44 ± 0.17		3 ± 0.098
VIFNDNVTETYSVYLIH [SIR3]	2.35 ± 0.12	2.42 ± 0.09	2.72 ± 0.072	2.28 ± 0.12
SNILLNSLTKYPDLKAF [MED1]	1.98 ± 0.14	2.41 ± 0.085	2.24 ± 0.2	1.71 ± 0.094
KEVASLPNKSTISKTVS [FAS2]	3.09 ± 0.12	3.05 ± 0.12	3 ± 0.08	3.21 ± 0.14
YCDKNFRENMSKEETVD [PRE3]	3.02 ± 0.076	3.09 ± 0.073	3.04 ± 0.066	2.92 ± 0.049
LATYCPRVQGFYVPQAR [GRR1]	2.44 ± 0.078	2.4 ± 0.069	2.03 ± 0.09	3 ± 0.049
FTGEKPIITGSTSTSSS [MED8]	2.71 ± 0.062	2.7 ± 0.054	2.78 ± 0.052	2.13 ± 0.043
RLPVSEDTNTKPLFDFG [YOR098C/NUP1]	2.76 ± 0.13	2.76 ± 0.12	1.93 ± 0.23	3.08 ± 0.13
KSGRINGFHGRLGDLGV [SMC4]	3.41 ± 0.11	3.43 ± 0.093	3.13 ± 0.1	3.31 ± 0.045
DIPLAKALDNACGAFIN [CDC53]	2.63 ± 0.091	3.1 ± 0.067	2.8 ± 0.078	2.87 ± 0.072
VKWVHMIIDEGHRMKNA [SNF2]	1.81 ± 0.12	1.91 ± 0.075	1.77 ± 0.13	3.11 ± 0.2
IKNLPADVSKLMYSITF [SRB2]	2.41 ± 0.054	2.95 ± 0.046	2.38 ± 0.049	2.76 ± 0.047
DIEAGDDDDNNESSSNT [DIS3]	3.51 ± 0.26	3.4 ± 0.2	3.05 ± 0.11	2.79 ± 0.12
KHWTEKSLHEMNERDWR [PRP28]	3.55 ± 0.21	3.02 ± 0.3	2.97 ± 0.2	
SNDVLKPETPKGPIIIS [SIR2]	3 ± 0.11	2.92 ± 0.077	2.78 ± 0.071	2.7 ± 0.077
LTKYIRSKNLIFNGETL [GRR1]	2.52 ± 0.086	2.43 ± 0.06	1.92 ± 0.078	1.91 ± 0.06
NVETYEQILQWVTEVLG [BRR2]	1.83 ± 0.065	1.75 ± 0.06	1.77 ± 0.089	2 ± 0.082
YDYYALQLLPLQKAVRG [SNF2]	1.63 ± 0.05	2.24 ± 0.044	1.87 ± 0.09	1.74 ± 0.035
HAQLLLSDRITGNFIIP [PRP8]	2.09 ± 0.061	2.52 ± 0.071	2.37 ± 0.071	2.71 ± 0.043

Sequence	protein stability index (doa10∆)	protein stability index (pdr5∆)	protein stability index (san1∆)	protein stability index (ubr1∆)
DDRVDKKFVSQIQKNVD [POP3]	3.22 ± 0.073	3.44 ± 0.12	3.29 ± 0.064	3.44 ± 0.051
RGKKGLKKKVVDPFTRK [RPS1B]	3.73 ± 0.15	3.34 ± 0.082	3.35 ± 0.074	3.27 ± 0.088
SSLSFGPENALNVYHYF [YJL039C/NUP192]	1.94 ± 0.031	2.11 ± 0.038	2.04 ± 0.05	2.67 ± 0.029
KKKVYTTPKKIKHKHKK [RPS31]	3.38 ± 0.16	2.86 ± 0.2		
KDIFRYMQRTVEEAHDF [RPB2]	2.24 ± 0.075	1.45 ± 0.046	1.91 ± 0.12	1.3 ± 0.045
RVIKDFKKLNSKNMSKS [YMR153W/NUP53]	1.95 ± 0.16		2.64 ± 0.21	
ANGGSTIISPHKDIPEE [DSN1]	3.44 ± 0.21	3.44 ± 0.16	3.57 ± 0.079	2.88 ± 0.28
KVGIWPYFDYIFNDILA [YJL039C/NUP192]	1.67 ± 0.11	1.96 ± 0.071	1.75 ± 0.17	1.43 ± 0.061
FSHPAHQQRMSRTAADI [YCG1]	2.01 ± 0.07	2.15 ± 0.093	2.4 ± 0.074	2.13 ± 0.06
VVVVGTVTDDARIFEFP [RPL18A]	2.75 ± 0.14	2.9 ± 0.097	2.6 ± 0.15	2.79 ± 0.092
QNNEQNPIDPFNIIREF [YDL116W/NUP84]	3.07 ± 0.052	3.15 ± 0.051	3.2 ± 0.04	3.17 ± 0.041
FSHSLTTILSFSSPAAL [NUT1]	1.46 ± 0.031	1.38 ± 0.029	1.35 ± 0.063	1.32 ± 0.026
IYDFITLFSSIEPQVIN [ECM29]	1.61 ± 0.07	2 ± 0.061	1.72 ± 0.18	2.08 ± 0.039
HTPTIASYLTPLLEAKK [SSN2]	3.04 ± 0.063	3.04 ± 0.051	3.01 ± 0.049	3.07 ± 0.048
IDYALTAVKQGVTSLGI [PRE8]	2.27 ± 0.072	2.07 ± 0.056	1.93 ± 0.071	1.62 ± 0.085
EEREGTDQSTEEEKSVD [CSL4]	3.16 ± 0.16			
AYSPKQDEQKHNENENS [RPO21]	2.65 ± 0.065	2.49 ± 0.072	2.57 ± 0.09	2.68 ± 0.061
RLTRLWIKNEQERQRQI [PRP8]	2.42 ± 0.14	2.56 ± 0.26		
GREGIWSKTIKARTNLH [RPC34]	1.46 ± 0.12	1.58 ± 0.2		1.51 ± 0.29
PFTDRSVVRGNTFKVLS [COB]	2.25 ± 0.082	2.56 ± 0.18	2.52 ± 0.091	2.37 ± 0.12
DDNEMTRDDLLTILMRS [RRI2]	2.44 ± 0.2	2.66 ± 0.19		
SGNTNGAGSAFGFSSSG [YOR098C/NUP1]	3.25 ± 0.071	3.13 ± 0.064	3.07 ± 0.064	3.02 ± 0.087
TSLKKIKDEIDDPFTKI [SWI1]	3.41 ± 0.17	3.24 ± 0.22		3.49 ± 0.13
SYSPTSPSYSPTSPSYS [RPO21]	2.53 ± 0.042	2.66 ± 0.041	2.78 ± 0.037	2.76 ± 0.034
KKVASANATAAESDVAK [RPL16A]	3.08 ± 0.054	3.04 ± 0.065	3.1 ± 0.036	3.02 ± 0.038
TGPFKVNGVPLRRVNAR [RPL6B]	2.26 ± 0.13	2.49 ± 0.099	2.56 ± 0.095	2.72 ± 0.061
KNSRVELQKIYDRHQSS [SMC4]	3.46 ± 0.098	3.01 ± 0.15	3.37 ± 0.11	3.14 ± 0.11

Reference: the supplement of paper PMC9732359
